The source of these data is patent US11458141B2, “Aryl hydrocarbon receptor (AhR) agonists for the prevention and treatment of inflammatory disorders” (The Johns Hopkins University, priority 2017, dated 2022).

The test addresses T1, AHR (Mus musculus, UniProt P30561).
T1 construct: from tissue; host or cells: mouse intestine (ileum / intestinal mucosa), in vivo
T1 sequence (P30561 10-848): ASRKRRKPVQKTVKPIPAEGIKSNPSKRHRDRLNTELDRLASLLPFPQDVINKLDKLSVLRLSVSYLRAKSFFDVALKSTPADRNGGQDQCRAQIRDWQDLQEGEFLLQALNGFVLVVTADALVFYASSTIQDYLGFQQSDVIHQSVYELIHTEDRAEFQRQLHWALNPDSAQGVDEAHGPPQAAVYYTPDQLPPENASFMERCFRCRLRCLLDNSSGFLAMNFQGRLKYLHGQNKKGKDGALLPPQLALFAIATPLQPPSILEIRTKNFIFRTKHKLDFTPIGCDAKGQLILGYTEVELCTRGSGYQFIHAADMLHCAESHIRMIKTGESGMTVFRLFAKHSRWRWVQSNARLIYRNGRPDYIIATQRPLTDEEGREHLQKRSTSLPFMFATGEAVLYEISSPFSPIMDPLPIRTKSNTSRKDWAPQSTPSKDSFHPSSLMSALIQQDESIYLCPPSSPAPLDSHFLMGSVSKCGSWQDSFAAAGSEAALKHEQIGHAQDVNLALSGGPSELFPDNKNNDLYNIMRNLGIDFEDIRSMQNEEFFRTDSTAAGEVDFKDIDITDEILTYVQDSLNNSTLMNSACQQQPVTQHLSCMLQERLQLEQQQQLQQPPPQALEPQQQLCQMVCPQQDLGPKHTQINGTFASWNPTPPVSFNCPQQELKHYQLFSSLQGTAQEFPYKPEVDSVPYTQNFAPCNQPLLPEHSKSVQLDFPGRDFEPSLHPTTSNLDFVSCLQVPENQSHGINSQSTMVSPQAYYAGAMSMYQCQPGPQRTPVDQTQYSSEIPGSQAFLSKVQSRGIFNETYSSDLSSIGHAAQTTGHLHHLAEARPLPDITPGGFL
The test can be described thus: AHR activation in mice by breast milk components (preliminary data). The class given is in vivo. An excerpt: iii. Other effects of breast milk. Although it is shown that breast milk inhibits TLR4 signaling in part via AHR activation (FIG. 15), potential AHR ligands within breast milk have not yet been thoroughly examined.

B1: epidermal growth factor (EGF): molecule enriched within breast milk shown to prevent NEC (protein, UniProt P01133 23-1207, looked up)
Pro-epidermal growth factor: PQHWSCPEGTLAGNGNSTCVGPAPFLIFSHGNSIFRIDTEGTNYEQLVVDAGVSVIMDFHYNEKRIYWVDLERQLLQRVFLNGSRQERVCNIEKNVSGMAINWINEEVIWSNQQEGIITVTDMKGNNSHILLSALKYPANVAVDPVERFIFWSSEVAGSLYRADLDGVGVKALLETSEKITAVSLDVLDKRLFWIQYNREGSNSLICSCDYDGGSVHISKHPTQHNLFAMSLFGDRIFYSTWKMKTIWIANKHTGKDMVRINLHSSFVPLGELKVVHPLAQPKAEDDTWEPEQKLCKLRKGNCSSTVCGQDLQSHLCMCAEGYALSRDRKYCEDVNECAFWNHGCTLGCKNTPGSYYCTCPVGFVLLPDGKRCHQLVSCPRNVSECSHDCVLTSEGPLCFCPEGSVLERDGKTCSGCSSPDNGGCSQLCVPLSPVSWECDCFPGYDLQLDEKSCAASGPQPFLLFANSQDIRHMHFDGTDYGTLLSQQMGMVYALDHDPVENKIYFAHTALKWIERANMDGSQRERLIEEGVDVPEGLAVDWIGRRFYWTDRGKSLIGRSDLNGKRSKIITKENISQPRGIAVHPMAKRLFWTDTGINPRIESSSLQGLGRLVIASSDLIWPSGITIDFLTDKLYWCDAKQSVIEMANLDGSKRRRLTQNDVGHPFAVAVFEDYVWFSDWAMPSVMRVNKRTGKDRVRLQGSMLKPSSLVVVHPLAKPGADPCLYQNGGCEHICKKRLGTAWCSCREGFMKASDGKTCLALDGHQLLAGGEVDLKNQVTPLDILSKTRVSEDNITESQHMLVAEIMVSDQDDCAPVGCSMYARCISEGEDATCQCLKGFAGDGKLCSDIDECEMGVPVCPPASSKCINTEGGYVCRCSEGYQGDGIHCLDIDECQLGEHSCGENASCTNTEGGYTCMCAGRLSEPGLICPDSTPPPHLREDDHHYSVRNSDSECPLSHDGYCLHDGVCMYIEALDKYACNCVVGYIGERCQYRDLKWWELRHAGHGQQQKVIVVAVCVVVLVMLLLLSLWGAHYYRTQKLLSKNPKNPYEESSRDVRSRRPADTEDGMSSCPQPWFVVIKEHQDLKNGGQPVAGEDGQAADGSMQPTSWRQEPQLCGMGTEQGCWIPVSSDKGSCPQVMERSFHMPSYGTQTLEGGVEKPHSLLSANPLWQQRALDPPHQMELTQ
modifications: Pro-epidermal growth factor
On to B1, for which the AHR activation entry is on record as “can activate AHR in mice”.
